Experimental data taken from US7479478B2, “Human parathyroid hormone modifications, preparation and use” (The General Hospital Corporation, priority 1998, dated 2009).
Entries after “also recorded” stand apart in the source; their conditions may differ. No end group written: not given here.

How the values were obtained:
[1] = biological target: T1, human PTH-1 receptors (Homo sapiens, UniProt Q03431); assay: PLC activation (IP3 formation) in HKRK B7 cells; type: cell-based; conditions: HKRK B7 cells
T1 construct: expressed in transfected cells
T1 sequence (Q03431 27-593): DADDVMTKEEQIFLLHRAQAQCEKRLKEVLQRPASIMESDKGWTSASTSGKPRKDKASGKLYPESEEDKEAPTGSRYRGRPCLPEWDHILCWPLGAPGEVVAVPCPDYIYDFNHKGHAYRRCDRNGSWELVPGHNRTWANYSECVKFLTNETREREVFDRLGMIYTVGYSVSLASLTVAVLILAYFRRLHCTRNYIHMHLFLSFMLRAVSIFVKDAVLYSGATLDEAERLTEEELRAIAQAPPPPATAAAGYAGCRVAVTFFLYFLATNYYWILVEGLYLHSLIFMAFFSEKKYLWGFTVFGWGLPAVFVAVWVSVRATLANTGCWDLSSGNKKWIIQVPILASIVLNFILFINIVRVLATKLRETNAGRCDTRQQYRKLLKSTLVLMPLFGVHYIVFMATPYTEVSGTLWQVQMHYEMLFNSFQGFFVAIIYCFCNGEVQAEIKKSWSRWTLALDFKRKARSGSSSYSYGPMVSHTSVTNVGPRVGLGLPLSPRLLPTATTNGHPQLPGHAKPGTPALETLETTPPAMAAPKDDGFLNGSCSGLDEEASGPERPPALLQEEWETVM
Experimental: (§1) HKRK B7 or EW5 cells (32), subclones of LLC-PKI renal epithelial cells that stably express human or rat PTH-1 receptors (950,000 and 320,000 receptors/cell, respectively), were maintained under 5% CO2 in air in Dulbecco's modified essential medium containing 7% fetal bovine serum (FBS) and 1% penicillin/streptomycin (GIBCO-BRL, Grand Island, N.Y.). HEK-293 and COS-7 cells were cultured similarly, except that 10% FBS was used in the medium. Cells were seeded into 24-well plates two days before assay at a density of 2-2.5×10^5 cells/well (HKRK B7 or EW 5 cells) or 6×10^5 cells/well (in 6-well plates) (HEK-293 cells). In experiments involving HEK-293 cells, DNA transfections were performed 24 hr after plating and inositol radiolabel was added 24 hr thereafter (see below). COS-7 cell transfections were performed as previously described (Gardella, T. J., et al., Endocrinology 132(5):2024-2030 (1993))
PLC was activated by PTH agonists in the presence of 30 mM LiCl at 37° C. for 30 min after 16 hr of labeling with [^3H]myo-inositol (3 uCi/ml) in serum-free medium containing 0.1% bovine serum albumin. The reactions were stopped by rapid aspiration and addition of cold 5% TCA. Water-soluble radiolabeled inositol trisphosphate (IP3) was isolated after ether extraction by ion-exchange chromatography (Guo, J., et al., Endocrinology 136(9):3884-3891 (1995)). In experiments involving HEK 293 cells, cells previously transfected with human PTHR cDNA (in the pcDNA1 expression vector HKRK) using Lipofectamine (Gibco BRL) were labeled with [^3H]myo-inositol and assayed as described above, except that total water-soluble [^3H]inositol polyphosphates were collected as a single fraction from the ion-exchange columns.

[2] = biological target: T2, rat PTH-1 receptors (Rattus norvegicus, UniProt P25961); assay: AC activation (cAMP) in EW5 cells; type: cell-based
T2 construct: expressed in transfected cells
T2 sequence (P25961 27-591): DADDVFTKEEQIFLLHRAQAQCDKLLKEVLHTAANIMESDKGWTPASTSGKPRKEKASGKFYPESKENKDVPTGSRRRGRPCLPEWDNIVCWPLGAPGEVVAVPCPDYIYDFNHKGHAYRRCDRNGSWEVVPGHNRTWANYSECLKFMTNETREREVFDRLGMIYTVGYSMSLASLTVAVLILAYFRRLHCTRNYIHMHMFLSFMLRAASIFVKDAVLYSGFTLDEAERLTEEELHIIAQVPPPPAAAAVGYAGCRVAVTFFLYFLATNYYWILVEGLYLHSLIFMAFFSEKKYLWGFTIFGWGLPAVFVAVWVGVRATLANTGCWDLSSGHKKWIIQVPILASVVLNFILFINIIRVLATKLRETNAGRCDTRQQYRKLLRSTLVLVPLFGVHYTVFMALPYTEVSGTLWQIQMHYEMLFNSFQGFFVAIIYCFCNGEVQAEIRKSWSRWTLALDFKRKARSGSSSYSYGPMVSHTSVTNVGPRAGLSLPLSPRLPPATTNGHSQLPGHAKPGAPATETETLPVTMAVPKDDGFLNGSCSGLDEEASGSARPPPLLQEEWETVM
Experimental: as §1, with “In experiments involving HEK-293 cells, DNA transfections were performed 24 hr after plating and inositol radiolabel was added 24 hr thereafter (see below). COS-7 cell transfections were performed as previously described (Gardella, T. J., et al., Endocrinology 132(5):2024-2030 (1993))” left out
Intracellular cAMP accumulation, PLC activation and PTHR binding affinity were measured as previously reported (Bringhurst, F. R., et al., Endocrinology 132(5):2090-2098 (1993); Guo, J., et al., Endocrinology 136(9):3884-3891 (1995)). Intracellular cAMP accumulation was measured in extracts of cells that were exposed to human PTH peptides in the presence of isobutylmethyxanthine (IBMX, 1 mM) at 37° C. for 15 min. After terminating the reactions by aspiration and freezing in liquid nitrogen, cell monolayers were extracted with 50 mM HCl and cAMP was measured using a radioimmunoassay kit (Dupont-New England Nuclear, Boston, Mass.). […]

Substance	fold reduction of PLC potency versus hPTH(1-34) [1]	PLC activation (IP3 formation), result in words ([1]; up to 1000 nM or 10 μM)	fold impairment of EC50 for AC at the rat PTH-1 receptor relative to hPTH-(1-34) [2]	fold less potent than hPTH-(1-29) in PLC activation [1]	EC50 ([1]; read-out: EC50 for PLC activity) [µM]	signaling (AC) via rat PTH-1 receptors, result in words ([2]; compared with human PTH-1 receptor)
GVSEIQLMHNLGKHLNSMRRVEWLRKKL [[Gly^1,Arg^19]hPTH-(1-28)]	approximately 100 fold	no increase in PLC activity; also recorded: strikingly and selectively impaired	about 6 fold	–	–	–
SVSEIQLMHNLGKHLNSMERVEWLRKKL-NH2 [hPTH-(1-28)]	–	–	–	approximately 5 fold	6	more severely impaired
